According to patent publication US10858396B2, “HER2 peptide regents and methods” (THE REGENTS OF THE UNIVERSITY OF MICHIGAN, priority 2015, dated 2020):
“Also recorded” adds a separate entry of the source. Ends that are not written are not given here.

Legend:
HER2-mediated signaling = assay: Effect of HER2 peptide on cell signaling (western blot); assay type: cell-based, human; conditions: 48 hours
Experimental: SKBR3 cells are commonly used to evaluate HER2 signaling, and were grown in 6 well plates to ˜60% confluence. Unlabeled KSP* peptide was added to separate wells at concentrations of 5 and 100 μM. Lapatinib, a tyrosine kinase inhibitor, was used as a positive control and was added in concentrations of 1, 25, 100 and 1000 nM. Lapatinib stock solution starting at 1 mg/mL was diluted in DMSO and PBS. 1% DMSO treated cells and untreated cells were used as control. After 48 hours following treatment, the cells were harvested for western blot analysis. Anti-HER2 antibody (Cell Signaling, #2165), phospho-HER2/ErbB2 (Tyr1248) antibody (Cell Signaling, #2247), anti-AKT (Cell Signaling, #4691P), anti-ERK1/2 (Cell Signaling, #4695P), anti-phospho-AKT (pS473), (Cell Signaling, #4060P), anti-phospho-ERK1/2 (Cell Signaling, #4370P) and anti-tubulin (Invitrogen, #32-2600) were used per manufacturer's instructions.

HER2 [1] = target: T1, HER2 (Homo sapiens, UniProt P04626); assay: Competition for peptide reagent binding with unlabeled KSP* on HT29 cells; set-up: host or cells: HT29; conditions: unlabeled KSP* 0, 10, 25, 50, 100 μM, then 2 μM KSP*-Cy5.5
Experimental: Specific binding of KSP*-Cy5.5 to HT29 cells was validated on competitive inhibition with unlabeled KSP* peptide reagent. ˜7500 HT29 cells were grown to ˜70% confluence on cover slips in triplicate. Unlabeled KSP* peptide at 0, 10, 25, 50, and 100 μM were added and incubated with the cells for 30 min at 4° C. The cells were washed 3× with PBS, and further incubated with 2 μM of KSP*-Cy5.5 for another 30 min at 4° C. The cells were washed 3× with PBS and fixed with 4% PFA for 10 min. The cells were washed with PBS and mounted with ProLong Gold reagent containing DAPI (Invitrogen). Confocal fluorescence images were collected at each concentration, and intensities from 3 independent images were quantified using custom Matlab (Mathworks) software.

HER2 [2] = target: T1, HER2; assay: Confocal microscopy of FITC-labeled candidate peptides binding to Flo1-HER2 and Q-hTERT (control) cells; assay type: cell-based; conditions: FITC-labeled peptide 10 μM, Flo1-HER2 relative to Q-hTERT cells
Experimental: Flo-1-Her2 and Q-hTERT cells were seeded with ˜7,500 cells in 12-well plates with 1.5 mm thick glass cover slides, and grown to ˜70% confluence. The cells were gently washed with cold PBS before adding the peptide. 10 μM of FITC-labeled peptide was added to each well and incubated at 4° C. for 1 hour. After incubation, the cells were washed 3× with PBS, fixed in ice-cold 4% PFA for 10 min, and washed 1× with PBS. Subsequently, the cells were embedded on microscope slides with ProLong Gold reagent containing DAPI (Invitrogen), and the slides where analyzed with a Leica TCS SP5 confocal microscope using 63× oil immersion objective (Leica Microsystems, Leider Lane IL). The FITC-labeled peptides and anti-HER2 antibody were tested in quadruplicate.

[3] = target: T2, colonic adenomas that over express HER2 (Mus musculus, UniProt P70424); assay: In vivo endoscopic NIR imaging of mouse colonic adenomas, topical peptide reagent; conditions: CPC;Apc mice
T2 construct: validate over expression of HER2 in mouse colonic dysplasia; from tissue; host or cells: colonic adenomas / colon of CPC;Apc mice (in vivo, excised colon, fixed sections)
T2 sequence (P70424 23-1256): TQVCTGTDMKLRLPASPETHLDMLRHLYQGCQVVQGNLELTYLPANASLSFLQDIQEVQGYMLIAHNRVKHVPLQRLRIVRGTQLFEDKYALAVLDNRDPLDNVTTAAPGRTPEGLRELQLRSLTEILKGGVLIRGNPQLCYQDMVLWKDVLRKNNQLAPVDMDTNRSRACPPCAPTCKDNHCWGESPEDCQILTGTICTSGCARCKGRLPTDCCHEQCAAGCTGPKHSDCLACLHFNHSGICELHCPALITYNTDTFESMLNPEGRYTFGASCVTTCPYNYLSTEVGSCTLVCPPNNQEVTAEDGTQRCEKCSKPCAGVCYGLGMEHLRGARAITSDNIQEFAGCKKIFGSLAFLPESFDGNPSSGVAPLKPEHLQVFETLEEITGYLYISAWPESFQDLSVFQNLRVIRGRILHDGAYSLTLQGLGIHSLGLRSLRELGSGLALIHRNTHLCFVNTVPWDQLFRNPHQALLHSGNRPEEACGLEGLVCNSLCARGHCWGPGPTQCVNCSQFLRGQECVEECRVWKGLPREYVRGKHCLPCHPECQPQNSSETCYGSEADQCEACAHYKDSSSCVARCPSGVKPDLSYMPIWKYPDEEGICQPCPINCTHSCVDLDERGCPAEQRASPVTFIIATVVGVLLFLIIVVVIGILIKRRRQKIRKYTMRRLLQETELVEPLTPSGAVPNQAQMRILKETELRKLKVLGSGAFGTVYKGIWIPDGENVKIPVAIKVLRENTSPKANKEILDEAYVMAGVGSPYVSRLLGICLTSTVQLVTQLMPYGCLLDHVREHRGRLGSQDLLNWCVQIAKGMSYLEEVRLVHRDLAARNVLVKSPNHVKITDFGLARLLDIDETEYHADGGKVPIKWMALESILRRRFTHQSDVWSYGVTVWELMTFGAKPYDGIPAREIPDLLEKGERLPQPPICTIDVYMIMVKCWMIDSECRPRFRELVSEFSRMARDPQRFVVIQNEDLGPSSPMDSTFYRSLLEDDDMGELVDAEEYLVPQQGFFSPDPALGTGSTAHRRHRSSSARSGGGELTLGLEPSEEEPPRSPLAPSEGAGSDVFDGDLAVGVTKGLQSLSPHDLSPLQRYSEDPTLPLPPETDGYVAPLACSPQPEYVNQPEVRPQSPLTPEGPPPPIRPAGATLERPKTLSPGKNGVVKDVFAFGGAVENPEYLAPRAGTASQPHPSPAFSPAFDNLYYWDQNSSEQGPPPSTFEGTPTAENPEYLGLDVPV
Experimental: Mouse imaging studies were performed with approval of the University of Michigan Committee on the Use and Care of Animals (UCUCA). The mice were housed in pathogen-free conditions and supplied water ad libitum under controlled conditions of humidity (50±10%), light (12/12 hour light/dark cycle) and temperature (25° C.). Anesthesia was induced and maintained via a nose cone with inhaled isoflurane mixed with oxygen at a concentration of 2-4% at a flow rate of ˜0.5 L/min. The colon was first rinsed with tap water to remove mucous and debris. White light illumination was used first to identify anatomic landmarks, including polyps, mucosal folds, colonic segment, and distance of endoscope tip from anus, to register the in vivo images with histology. […] During imaging, we recorded the 1) distance between the endoscope tip and the anus and 2) clockwise location of each region of high intensity. […]
White light and fluorescence videos were exported in avi format with 24 (RGB) and 8 (grayscale) bit digital resolution for the color and fluorescence images, respectively. […] On the fluorescence images, 3 regions of interest (ROI) with dimensions of 25×25 pixels were picked to represent a range of staining for normal and diseased tissues and averaged. The mean intensities within these ROI were determined to calculate the target to-background (T/B) ratio.

[4] = target: T3, HER2 over expressed by mouse colonic dysplasia (Mus musculus, UniProt P70424); assay: Peptide reagent immunofluorescence on mouse colonic adenoma sections; conditions: 2 μM, 10 min at RT, confocal microscopy
T3 construct: validate over expression of HER2 in mouse colonic dysplasia; from tissue; host or cells: colonic adenomas / colon of CPC;Apc mice (in vivo, excised colon, fixed sections)
T3 sequence (P70424 23-1256): as above
Experimental: Specimens of mouse colonic adenoma were formalin fixed and processed, as described previously. Serial 5 μm sections were incubated with 2 μM of each peptide for 10 min at RT. The sections were washed 3× with PBS, and mounted with Prolong Gold reagent containing DAPI (Invitrogen). Adjacent sections were processed for histology (H&E).

ErbB2 (HER2) = target: T4, ErbB2 (HER2) (Homo sapiens, UniProt P04626); assay: Staining of FFPE human Barrett's esophagus specimens with peptide reagents; conditions: excised human specimens, 5 μM, 10 min
T4 construct: specimens of human esophagus were obtained from an archived tissue bank; from tissue; host or cells: FFPE human esophagus (SQ, BE, LGD, HGD, EAC)
Experimental: Formalin-fixed, paraffin-embedded (FFPE) specimens of human esophagus were obtained from an archived tissue bank. 5 μm thick sections were cut, and mounted onto glass slides (Superfrost Plus, Fischer Scientific). The tissues were deparaffinized, and antigen retrieval was performed. The sections were blocked with protein serum for 15 min at room temperature followed by rinsing with PBS. The sections were then stained with either KSP*-Cy5.5 or RHP*-Cy5.5 at 5 μM concentration for 10 min at room temperature. The sections were then washed 3× for 3 min with PBS and further incubated with anti-HER2 antibody overnight at 4° C. Sections were washed 3× with PBST and mounted with Prolong Gold reagent containing DAPI (Invitrogen) using #1 cover glass ([…]).

HER2 [5] = target: T1, HER2; assay: Confocal fluorescence microscopy of peptide reagent binding to HT29 and SW480 cells; assay type: cell-based; set-up: host or cells: HT29, SW480; conditions: 5 μM, 30 min at 4° C.
Experimental: Cells were washed with PBS and incubated with 5 μM of KSP*-Cy5.5 and PPS*-Cy5.5 for 30 min at 4° C. The cells were then washed 3× in PBS, fixed with ice cold 4% paraformaldehyde (PFA) for 10 min, washed 1× with PBS, and then mounted on glass slides with ProLong Gold reagent containing DAPI (Invitrogen). Confocal fluorescence images were collected with Cy5.5, and DAPI filters (Leica Inverted SPSX Confocal Microscope System). For antibody staining, the cells were pre-fixed with cold methanol for 10 min at −20° C. and blocked with 2% BSA for 30 min at RT. Cells were incubated with 1:450 dilution of anti HER2 antibody overnight at 4° C. The cells were washed 3× with PBS and processed for secondary staining. Goat-anti rabbit Alexa-Fluor 488 (AF488) was added to the cells and incubated for 1 hour at RT. Cells were further washed 3× with PBS and mounted onto glass cover slips. Fluorescence intensities from 3 independent images were quantified using custom Matlab (Mathworks) software.

With CS(=O)(=O)CCNCc1ccc(-c2ccc3ncnc(Nc4ccc(OCc5cccc(F)c5)c(Cl)c4)c3c2)o1 [lapatinib] the “phosphorylation of HER2 (p-HER2), AKT (p-AKT) and ERK (p-ERK)” value (HER2-mediated signaling; 1 to 1000 nM) was “reduced expression; also recorded: dose dependent reduction”.
With “KSP*: unlabeled KSP* peptide (KSPNPRF without Cy5.5 fluorophore)” the “phosphorylation of HER2 (p-HER2), AKT (p-AKT) and ERK (p-ERK)” value (HER2-mediated signaling; 5 and 100 μM) was “no change; also recorded: no reduction” and the “fluorescence intensity of KSP*-Cy5.5 on competition with unlabeled peptide” value (HER2 [1]) was “decrease significantly in a concentration dependent manner”.
“KSPNPRF (also: FITC label, site not given here) [HER2-specific peptide; FITC-labeled for candidate selection]” was tested, and the “mean fluorescence intensity compared with other peptide candidates” value (HER2 [2]) was “highest mean fluorescence intensity”.
For “PPS*-Cy5.5: scrambled control peptide PPSNFKR linked to Cy5.5 via GGGSK (PPSNFKRGGGSK-{Cy5.5-NH2}; also: Cy5.5 attached via GGGSK linker, end not given here)”, the “mean (±std) T/B ratio” value ([3]; topical 100 μM, 5 min incubation, adenomas) was 1.46±0.25, the “NIR fluorescence signal from polyp / flat adenoma” value ([3]; topical administration) was “Minimal signal; also recorded: significantly reduced signal” and the “staining of normal mouse colonic mucosa” value [4] was “Minimal staining”. The “staining with cancer progression in Barrett's esophagus (SQ, BE, LGD, HGD, EAC)” value (ErbB2 (HER2)) was “Minimal staining” and the “binding to cell surface on confocal microscopy” value (HER2 [5]) was “minimal binding”.
